Measured values from paper PMC5753752.

Assays:
[1] = target: Cy3-labeled GLP-1R-T378SphK (UniProt P43220)
GLP-1R-T378SphK = GLP-1R-T378SphK (UniProt P43220)
wild-type GLP-1R = wild-type GLP-1R (UniProt P43220)

Substance GLP-1 peptide has a GLP-1-induced cAMP accumulation in transfected HEK293T cells, pEC50 [1] of 10.4, a GLP-1-induced cAMP accumulation in transfected HEK293T cells, pEC50 (GLP-1R-T378SphK) of 10.3 and a GLP-1-induced cAMP accumulation in transfected HEK293T cells, pEC50 (wild-type GLP-1R) of 10.7.
